Substitutions are numbered along the chain they refer to. Names and notes keep the numbering of the source.
Legend:
GST-p300TAZ2 = test: Mass photometry (MP) of GST-p300TAZ2 with EZH2TAD constructs; type: binding, human; conditions: 20 nM GST-p300TAZ2 alone
Protocol: [37]. […] After induction with isopropyl b-D-1-thiogalactopyranoside (IPTG), harvesting, and lysis in buffer [50 mM Tris pH 7.0, 1 M NaCl, 5 mM dithiothreitol (DTT), 1 mM phenylmethanesulfonylfluoride (PMSF) and DNase] by sonication, the proteins were purified on glutathione agarose beads (Pierce) and eluted with buffer containing reduced L-glutathione (Fisher). The GST tag was either cleaved with TEV protease overnight at 22°C or kept intact during subsequent purification steps. […] The EZH2TAD1 ([…]) construct was generated by deletion using Q5 Hot Start High-Fidelity kit (NEB) and confirmed by DNA sequencing. Both constructs were expressed in E. coli Rosetta-2 (DE3) pLysS cells grown in LB media and induced at an OD600 of 0.6-0.8 with 1 mM IPTG for 16 h at 16°C. Cells were harvested by centrifugation, suspended in buffer (50 mM Tris pH 7.5, 500 mM NaCl, 1% CHAPS, 2 mM DTT, 1 mM PMSF, Roche cOmplete Protease Inhibitor Cocktail, and DNase), and lysed by sonication. […] When necessary, EZH2TAD constructs were further purified using a Superdex 200 Increase 10/300 GL column (Cytiva) with monitoring at 205 and 280 nm. […] To overcome the minimum size limit, a GST-fusion construct was used for one of the components in each sample. […] Ten microliter of each sample was loaded into the sample wells of the silicon cassettes assembled onto MassGlass UC coverslips (Refeyn, Ltd.). […]

[1] = system: FLAG-HA-tagged p300 catalytic core (aa 1035–1830 of p300); test: Histone acetyltransferase (HAT) assay, Western blot, recombinant nucleosome substrate; type: biochemical; conditions: 1 μg p300 core, 2.5, 5 or 10 μg GST-tagged TADs, 1 μg nucleosome, 15 min
Protocol: Histone acetyltransferase assay
For HAT assays, FLAG-HA-tagged p300 core (aa 1035–1830 of p300) in a pCDH vector was expressed in 293 T cells for two days. Cells were lysed in lysis buffer (50 mM Tris-HCl pH 7.5, 300 mM NaCl, 1.5 mM MgCl2, 1 mM EDTA, 1% Triton100, 10% glycerol, 1 mM PMSF, and protease inhibitors) and sonicated. Cell lysates were incubated with anti-Flag M2 beads (Sigma) at 4° for 4 h. The beads were then washed three times with buffer (50 mM Tris-HCl pH 7.5, 500 mM NaCl, 1.5 mM MgCl2, 0.2 mM EDTA, 0.1% NP40, 10% glycerol, and 1 mM PMSF), and the protein was eluted with elution buffer (50 mM Tris-HCl pH 7.5, 300 mM NaCl, 1 mM DTT, 10% glycerol, and 0.4 mg/ml Flag peptide).
GST-tagged EZH2TADs (aa 119–267), EZH1TADs (aa 120–280), F176A/F237A EZH1TADs (EZH1 2A), and F146A/F176A/F237A/Y257A EZH1TADs (EZH1 4A) constructs in the pGEX-6p-1 vector were transformed into RosettaTM2 (DE3) pLysS competent cells (Novagen). Protein production was induced by incubating with 0.4 mM IPTG at 16°C for 20 h in LB. Cell pellets were resuspended in lysis buffer (50 mM Tris-HCl pH 8.0, 300 mM NaCl, 1 mM PMSF, and 1 × cOmpleteTM EDTA-free Protease Inhibitor Cocktail) and lysed by sonication. Lysates were centrifuged at 17,000 g for 15 min, and supernatants were incubated with Glutathione Sepharose® 4B beads (Sigma) at 4°C for 2 h. Beads were washed with lysis buffer twice, and proteins were eluted with elution buffer (50 mM Tris-HCl pH 8.0, 150 mM NaCl, 10% glycerol, and 15 mg/ml GSH).
Purified FLAG-HA-tagged p300 catalytic core fragment (1 μg) was incubated with increasing amounts of GST-tagged EZH2TADs and GST-tagged EZH1TADs (2.5, 5, or 10 μg) and the nucleosome (1 μg) in HAT reaction buffer (50 mM Tris-HCl pH 8.0, 100 mM NaCl, 10% glycerol, 1 mM DTT, […], and 1× cOmplete EDTA-free Protease Inhibitor Cocktail) at 30°C for 15 min. Reactions were stopped by boiling at 95°C for 5 min in 2×SDS loading buffer, and samples were analyzed by SDS-PAGE and Western blot. […]

B1: GST-p300TAZ2: GST-tagged human p300 TAZ2 domain, aa 1722–1812 (protein)
chain: AWTQSPGDSRRLSIQRCIQSLVHACQCRNANCSLPSCQKMKRVVQHTKGCKRKTNGGCPICKQLIALCCYHAKHCQENKCPVPFCLNIKQK
modifications: left off: GST, end not stated, kept
oligomeric state in the apo-state (GST-p300TAZ2): exists in a dimeric form
MP peak, apo GST-p300TAZ2 (GST-p300TAZ2; Figure 5a, room temperature, 50 mM Tris pH 7.5, 150 mM NaCl, 5 mM DTT): ~ 80 kDa

B2: EZH1 WT: GST-tagged EZH1TAD1-TAD2-TAD3 (aa 120–280) (protein)
chain: NFMVEDETVLCNIPYMGDEVKEEDETFIEELINNYDGKVHGEEEMIPGSVLISDAVFLELVDALNQYSDEEEEGHNDTSDGKQDDSKEDLPVTRKRKRHAIEGNKKSSKKQFPNDMIFSAIASMFPENGVPDDMKERYRELTEMSDPNALPPQCTPNIDGP
modifications: left off: GST, end not stated, kept
H3K18 acetylation by p300 core ([1]; 100 mM acetyl-CoA, 50 mM Tris-HCl pH 8.0, 30°C, H3K18ac Western blot): dose-dependent increase in H3K18 and H3K27 acetylation
H3K27 acetylation by p300 core ([1]; 100 mM acetyl-CoA, 50 mM Tris-HCl pH 8.0, 30°C, H3K27ac Western blot): dose-dependent increase in H3K18 and H3K27 acetylation

B3: EZH1 2A: GST-tagged F176A/F237A mutant of EZH1TAD1-TAD2-TAD3 (aa 120–280) (protein)
chain: B2 chain with F57A, F118A
modifications: left off: GST, end not stated, kept
stimulation of p300 enzymatic activity ([1]; mutants compared with EZH1 WT, 30°C, H3K18ac and H3K27ac Western blot): stimulation of the p300 enzymatic activity was decreased

From article PMC12312386, “Multiple transactivation domains of EZH2 bind to the TAZ2 domain of p300 and stimulate the acetyltransferase function of p300” (Biochemical Journal, 2025)
